Measured values as given in patent US20220251227A1 (Eli Lilly, published 2022).

T1: human GITR (human, UniProt Q9Y5U5 26-241)
T1 sequence: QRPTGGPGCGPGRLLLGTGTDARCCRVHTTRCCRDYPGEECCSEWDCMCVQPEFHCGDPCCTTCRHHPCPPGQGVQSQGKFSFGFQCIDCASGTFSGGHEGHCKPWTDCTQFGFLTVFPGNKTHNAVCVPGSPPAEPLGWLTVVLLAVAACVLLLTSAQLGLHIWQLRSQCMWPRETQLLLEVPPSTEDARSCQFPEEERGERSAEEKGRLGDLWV


How the values were obtained:
[1] = target: T1, human GITR; test: cell-based or functional assay
[2] = target: cynomolgus monkey GITR (cynomolgus monkey); test: cell-based or functional assay
[3] = target: T1, human GITR; test: cell-based or functional assay; remark: listed apart in the source
[4] = target: T1, human GITR; test: cell-based or functional assay; remark: listed apart in the source
[5] = target: T2, Rabbit serum albumin (rabbit, UniProt P49065 25-608); test: SPR, Biacore 8K, albumin immobilized on CM5, 25 C
T2 construct: Bought protein, immobilized on a CM5 chip by amine coupling at 118 RU; also called Rabbit SA
Protocol: Binding of Antibody I and Antibody II to various serum albumins is carried out on Biacore 8K instrument. The immobilization of the serum albumin to a Series S Sensor Chip CM5 (Cytiva 29149603) surface is performed according to the manufacturer's instructions (Amine Coupling Kit BR-1000-50). Briefly, carboxyl groups on the sensor chip surfaces (flow cell 1 and 2) are activated by injecting 70 μL of a mixture containing 75 mg/ml 1-Ethyl-3-(3-dimethylaminopropyl) carbodiimide hydrochloride (EDC), and 11.5 mg/ml N-Hydroxysuccinimide (NHS) at 10 μl/min. Human, cynomolgus monkey, rat, mouse, dog, pig, cow, and rabbit serum albumin are diluted in 10 mM sodium acetate pH 4.0 (BR-1003-49) at 0.8, 0.8, 0.8, 2.5, 0.8, 1, 1, and 1.5 μg/m1 then injected over the activated chip surfaces (flow cell 2, channel 1 to 8) at 10 μl/min for 100 seconds. […]
The antibodies of Examples 1 and 2 (i.e., Antibody I and II, respectively) are diluted in HBS-EP+buffer (10 mM HEPES pH 7.6, 150 mM NaCl, 3 mM EDTA, 0.05% Polysorbate 20) at concentrations of 1000, 333.3, 111.1, 37.04, 12.35, 4.12, 1.37, 0.457, 0.152, 0.051 and 0.017 nM. […] The resulting sensorgrams are analyzed using Biacore 8K Insight Evaluation Software (version 3.0.11.15423) 1:1 binding kinetics model fitting to calculate the binding kinetic parameters: association rate (ka), dissociation rate (kd), and equilibrium dissociation constant (KD).

[6] = target: T3, Human serum albumin (human, UniProt P02768 25-609); test: SPR, Biacore 8K, albumin immobilized on CM5, 25 C, 1:1 model
T3 construct: Bought protein, immobilized on a CM5 chip by amine coupling; also called Human SA
Protocol: (§1) Binding of Antibody I and Antibody II to various serum albumins is carried out on Biacore 8K instrument. The immobilization of the serum albumin to a Series S Sensor Chip CM5 (Cytiva 29149603) surface is performed according to the manufacturer's instructions (Amine Coupling Kit BR-1000-50). Briefly, carboxyl groups on the sensor chip surfaces (flow cell 1 and 2) are activated by injecting 70 μL of a mixture containing 75 mg/ml 1-Ethyl-3-(3-dimethylaminopropyl) carbodiimide hydrochloride (EDC), and 11.5 mg/ml N-Hydroxysuccinimide (NHS) at 10 μl/min. Human, cynomolgus monkey, rat, mouse, dog, pig, cow, and rabbit serum albumin are diluted in 10 mM sodium acetate pH 4.0 (BR-1003-49) at 0.8, 0.8, 0.8, 2.5, 0.8, 1, 1, and 1.5 μg/m1 then injected over the activated chip surfaces (flow cell 2, channel 1 to 8) at 10 μl/min for 100 seconds. Human serum albumin was obtained from Sigma Aldrich (St. Louis, Mo.) (Cat. No. A8763).
(§2) The serum albumins are covalently immobilized through free amines onto a carboxymethyl dextran-coated sensor chip CM5 at surface densities of 29-52 resonance units (RU) for human, cynomolgus monkey, rat, mouse, dog, pig, and cow as well as 118 resonance units (RU) for rabbit serum albumin. Excess reactive groups on the surfaces (flow cell 1 and 2) are deactivated by injecting 70 μl of 1 M Ethanolamine hydrochloride-NaOH pH 8.5.
(§3) The antibodies of Examples 1 and 2 (i.e., Antibody I and II, respectively) are diluted in HBS-EP+buffer (10 mM HEPES pH 7.6, 150 mM NaCl, 3 mM EDTA, 0.05% Polysorbate 20) at concentrations of 1000, 333.3, 111.1, 37.04, 12.35, 4.12, 1.37, 0.457, 0.152, 0.051 and 0.017 nM. 180 μl of sample are individually injected sequentially across the immobilized serum albumins on the chip's surface and dissociated for 600 sec at 60 μl/min flow rate at 25° C. The surface is regenerated by injecting 10 mM glycine-HCl pH 1.5 (BR-1003-54) at 60 μl/min for 100 sec. The resulting sensorgrams are analyzed using Biacore 8K Insight Evaluation Software (version 3.0.11.15423) 1:1 binding kinetics model fitting to calculate the binding kinetic parameters: association rate (ka), dissociation rate (kd), and equilibrium dissociation constant (KD).

[7] = target: T4, Cynomolgus monkey serum albumin (cynomolgus monkey, UniProt A2V9Z4 25-608); test: as above
T4 construct: Bought protein, immobilized on a CM5 chip by amine coupling; also called Cyno SA
Protocol: as §1, §2, §3

[8] = target: T5, Mouse serum albumin (mouse, UniProt P07724 25-608); test: as above
T5 construct: Bought protein, immobilized on a CM5 chip by amine coupling; also called Mouse SA
Protocol: as §1, §2, §3

[9] = target: T6, Rat serum albumin (rat, UniProt P02770 25-608); test: as above
T6 construct: Bought protein, immobilized on a CM5 chip by amine coupling; also called Rat SA
Protocol: as §1, §2, §3

[10] = target: T7, Pig serum albumin (pig, UniProt P08835 25-607); test: as above
T7 construct: Bought protein, immobilized on a CM5 chip by amine coupling; also called Pig SA
Protocol: as §1, §2, §3

[11] = target: T8, Dog serum albumin (dog, UniProt P49822 25-608); test: as above
T8 construct: Bought protein, immobilized on a CM5 chip by amine coupling; also called Dog SA
Protocol: as §1, §2, §3

[12] = target: T9, Cow serum albumin (cow, UniProt P02769 25-607); test: as above
T9 construct: Bought protein, immobilized on a CM5 chip by amine coupling; also called Cow SA
Protocol: as §1, §2, §3

[13] = target: T10, cynomolgus monkey GITR (cynomolgus monkey); test: flow cytometry on Jurkat cyno GITR/NFkBluc cells, anti-kappa PE detection, geometric mean of 3
T10 construct: whole, on cells; Stood on Jurkat cyno GITR/NFkBluc cells; also called cyno GITR
Protocol: Jurkat human GITR/NFkB-Luc2 and Jurkat cynomolgus monkey GITR/NFkBluc cells are resuspended in FACS buffer (PBS+1% BSA+0.01% sodium azide) at 1 million cells/mL and 5 μl Fc block/mL (BioLegend) is added and incubated at 4° C. for 20 min. Cells are washed with FACS buffer and resuspended at 1e6 cells/mL in FACS buffer and added to a polypropylene 96-well plate at 100 μl/well for 100,000 cells/well. 100 μl/well of 2X antibody dose titrations diluted in FACS buffer are added to cells and incubated 45 minutes at 4° C. Cells are washed twice with 200 μl/well FACS buffer and resuspended in 12.5 μg/mL anti-human Ig light chain kappa/PE secondary antibody (Invitrogen #PA1-74408) in FACS buffer and incubated for 45 minutes at 4° C. Cells are washed twice with 200 μl/well FACS buffer and resuspended in 200 μl FACS buffer. Samples are read on a Millipore EasyCyte Cytometer and median fluorescence intensity values are calculated using GuavaSoft 3.3 InCyte software. EC₅₀ values are calculated for each of 3 experiment replicates and the EC₅₀ Geometric Mean +/−Error (Delta Method) is calculated from these 3 results. The cell binding results shown in Table 5 indicate that both Antibody I and Antibody II bind potently to human GITR and cynomolgus monkey GITR (“cyno GITR”).

[14] = target: T1, human GITR; test: flow cytometry on Jurkat human GITR/NFkB-Luc2 cells, anti-kappa PE detection, geometric mean of 3
Protocol: Jurkat human GITR/NFkB-Luc2 cells (CS184004) were purchased from Promega and maintained in RPMI1640 media+10% FBS (HyClone SH30070.3)+400 μg/mL hygromycin B+600 μg/mL G418.
Jurkat human GITR/NFkB-Luc2 and Jurkat cynomolgus monkey GITR/NFkBluc cells are resuspended in FACS buffer (PBS+1% BSA+0.01% sodium azide) at 1 million cells/mL and 5 μl Fc block/mL (BioLegend) is added and incubated at 4° C. for 20 min. Cells are washed with FACS buffer and resuspended at 1e6 cells/mL in FACS buffer and added to a polypropylene 96-well plate at 100 μl/well for 100,000 cells/well. 100 μl/well of 2X antibody dose titrations diluted in FACS buffer are added to cells and incubated 45 minutes at 4° C. Cells are washed twice with 200 μl/well FACS buffer and resuspended in 12.5 μg/mL anti-human Ig light chain kappa/PE secondary antibody (Invitrogen #PA1-74408) in FACS buffer and incubated for 45 minutes at 4° C. Cells are washed twice with 200 μl/well FACS buffer and resuspended in 200 μl FACS buffer. Samples are read on a Millipore EasyCyte Cytometer and median fluorescence intensity values are calculated using GuavaSoft 3.3 InCyte software. EC₅₀ values are calculated for each of 3 experiment replicates and the EC₅₀ Geometric Mean +/−Error (Delta Method) is calculated from these 3 results. […]

Binder | IC50 nM GeoMean, inhibition of GITRL stimulation of Jurkat GITR/NFkB luciferase cells [1] [nM] | IC50 nM GeoMean, inhibition of GITRL stimulation of Jurkat GITR/NFkB luciferase cells [2] [nM] | IC50 nM GeoMean, inhibition of GITRL co-stimulation of T cell proliferation [3] [nM] | IC50 nM Mean, restoration of regulatory T cell suppression of effector T cell proliferation in the presence of GITRL [4] [nM] | binding result [5] | Kd [6] [nM] | koff [6] [s⁻¹] | kon [6] [M⁻¹ s⁻¹] | Kd [7] [nM] | koff [7] [s⁻¹] | kon [7] [M⁻¹ s⁻¹] | Kd [8] [nM] | koff [8] [s⁻¹] | kon [8] [M⁻¹ s⁻¹] | Kd [9] [nM] | koff [9] [s⁻¹] | kon [9] [M⁻¹ s⁻¹] | Kd [10] [nM] | koff [10] [s⁻¹] | kon [10] [M⁻¹ s⁻¹] | also measured
Antibody I (Fab, Monovalent anti-GITR Fab; also called HC anti-GITR Fab-VHH Fusion 1 with LC) heavy: not shown light: DIQMTQSPSSLSASVGDRVTITCRASQDISNSLAWYQQKPGKAPKRLIYAAFSLQSGVPSRFSGSGSGTEFTLTISSLQPEDFATYYCYQYYNYPSAFGQGTKLEIKRTVAAPSVFIFPPSDEQLKSGTASVVCLLNNFYPREAKVQWKVDNALQSGNSQESVTEQDSKDSTYSLSSTLTLSKADYEKHKVYACEVTHQGLSSPVTKSFNRGEC | 4.1 | 2.27 | 4.76 | 4.69 | no binding (tested: 1000 nM highest concentration tested) | 0.25 | 6.5e-05 | 260000 | 4.4 | 0.00082 | 190000 | 53 | 0.0094 | 180000 | 44 | 0.007 | 160000 | 100 | 0.013 | 120000 | Kd [11]: 20 nM; koff [11]: 0.0035 s⁻¹; kon [11]: 170000 M⁻¹ s⁻¹; Kd [12]: 460 nM; koff [12]: 0.091 s⁻¹; kon [12]: 200000 M⁻¹ s⁻¹; EC50 [13]: 3.06 nM; EC50 [14]: 6.8 nM
Antibody II (Fab, Monovalent anti-GITR Fab; also called HC anti-GITR Fab-VHH Fusion 2 with LC) heavy: not shown light: DIQMTQSPSSLSASVGDRVTITCRASQDISNSLAWYQQKPGKAPKRLIYAAFSLQSGVPSRFSGSGSGTEFTLTISSLQPEDFATYYCYQYYNYPSAFGQGTKLEIKRTVAAPSVFIFPPSDEQLKSGTASVVCLLNNFYPREAKVQWKVDNALQSGNSQESVTEQDSKDSTYSLSSTLTLSKADYEKHKVYACEVTHQGLSSPVTKSFNRGEC | 1.68 | 1.26 | 1.84 | 2.72 | no binding (tested: 1000 nM highest concentration tested) | 0.4 | 7.8e-05 | 190000 | 5.9 | 0.00087 | 150000 | 42 | 0.0096 | 230000 | 51 | 0.0073 | 140000 | 99 | 0.012 | 120000 | Kd [11]: 20 nM; koff [11]: 0.0034 s⁻¹; kon [11]: 170000 M⁻¹ s⁻¹; Kd [12]: 430 nM; koff [12]: 0.087 s⁻¹; kon [12]: 200000 M⁻¹ s⁻¹; EC50 [13]: 2.34 nM; EC50 [14]: 3.25 nM
